In patent US20170022268A1 (published 2017):
Where no end group is shown, it is not given here. [ ]: non-standard residue; d: D form. pGlu = O=C1CC[C@@H](C(=O)O)N1

B1: monoclonal antibody 2E8 (antibody, V domains shown)
VH: QIQLQQSGPDLVKPGASVKISCKASGYTFTDYYINWVKQKPGQGLEWIGWLNPGSGNTKYNEKFKGKATMTVDTTSSTVYMQLSSLTSEDSAVYFCTREGPIDYWGRGTSVTVSS
VL: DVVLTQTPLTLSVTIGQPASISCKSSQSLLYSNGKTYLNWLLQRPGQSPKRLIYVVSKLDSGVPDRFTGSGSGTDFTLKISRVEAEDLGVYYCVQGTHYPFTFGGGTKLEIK
B2: monoclonal antibody 5C9 (antibody, V domains shown)
VH: QIQLQQSGPELVKPGAAVKISCKASGYTFTDYYLNWVKQKPGQGLEWIGWIYPGSGNVKYNEKFKGKATLTADTSSNTAHMQLSSLTSEDTAVYFCTREGLIVYWGQGTLVTVSA
VL: DVVLTQTPFTLSVTIGQPASISCKSSQSLLHSNGESYLNWLFQRPGQSPKRLIYAVSKLDSGVPDRFTGSGSGTDFTLKISRVEAEDLGVYYCVQGTHFPFTFGGGTKLEIK

Assays:
[1] = molecular target: T1, pyroglutamated human Aβ3-11 with the addition of a C-terminal cysteine residue, pE-FRHDSGYE-C (not fully specified); experiment: Biacore SPR; KD1 (first binding step)
T1 peptide: [pGlu]FRHDSGYEC

[2] = molecular target: T1, pyroglutamated human Aβ3-11 with the …; experiment: Biacore SPR; overall KD

Binder | Kd [1] | Kd [2]
B1 | 3.46 nM | 64 nM
B2 | 0.116 nM | 8.2 nM
